Starred links: 1 amine or outer side, 2 acyl side, 3 side chain; linkers in the order of their positions; H or OH if unused. Non-standard residues stand in square brackets, D forms with d. Groups on a side chain read outwards from the residue. *: point of attachment. TTDS = 4-[3-[2-[2-(3-aminopropoxy)ethoxy]ethoxy]propylamino]-4-oxo-butanoyl; γGlu = O=C(O)[C@H](CCC(=O)[*:2])N[*:1]; Stearoyl = CCCCCCCCCCCCCCCCCC(=O)*; Palmitoyl = CCCCCCCCCCCCCCCC(=O)*; Cit = NC(=O)NCCC[C@H](N)C(=O)O; αMeK = C[C@](N)(CCCCN)C(=O)O; hLys = NCCCCC[C@H](N)C(=O)O; AEEA = NCCOCCOCC(=O)O; Aib = CC(C)(N)C(=O)O
T1: RXFP1 receptor (endogenous, on OVCAR5 cells) (UniProt Q9HBX9 1-757, limits assumed)
T1 sequence (looked up): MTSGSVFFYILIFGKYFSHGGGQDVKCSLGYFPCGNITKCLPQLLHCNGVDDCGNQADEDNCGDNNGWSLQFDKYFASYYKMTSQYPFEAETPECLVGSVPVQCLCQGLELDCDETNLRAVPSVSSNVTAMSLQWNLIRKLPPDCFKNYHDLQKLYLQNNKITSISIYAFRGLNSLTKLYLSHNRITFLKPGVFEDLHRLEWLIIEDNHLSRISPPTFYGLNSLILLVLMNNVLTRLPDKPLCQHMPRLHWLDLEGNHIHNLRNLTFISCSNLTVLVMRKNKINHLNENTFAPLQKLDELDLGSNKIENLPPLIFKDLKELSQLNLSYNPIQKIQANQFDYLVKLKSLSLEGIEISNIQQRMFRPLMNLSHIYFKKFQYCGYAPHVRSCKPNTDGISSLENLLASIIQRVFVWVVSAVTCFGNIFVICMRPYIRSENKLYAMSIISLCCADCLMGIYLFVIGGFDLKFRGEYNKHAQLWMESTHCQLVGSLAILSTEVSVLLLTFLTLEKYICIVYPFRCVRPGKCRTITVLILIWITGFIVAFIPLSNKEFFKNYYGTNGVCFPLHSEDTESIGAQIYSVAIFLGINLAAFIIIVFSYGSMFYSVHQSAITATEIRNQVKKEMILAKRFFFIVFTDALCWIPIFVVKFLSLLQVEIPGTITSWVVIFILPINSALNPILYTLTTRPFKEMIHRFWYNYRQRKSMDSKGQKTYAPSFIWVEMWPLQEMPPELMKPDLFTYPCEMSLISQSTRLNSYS


Molecular target: T1, RXFP1 receptor (endogenous, on OVCAR5 …)
Test: cell-based or functional assay

EC50 (nM), OVCAR 5 cells (cAMP) [nM] | EMax, OVCAR 5 cells (cAMP) [%] | Binder
1.5 | 89 | Ac-LEGREKVRAK(Ac)I[Aib][Aib]EGK([TTDS-TTDS-γGlu-γGlu-γGlu-Palmitoyl])STWS[Aib]RKK(Ac)-NH2 [peptide of SEQ ID NO: 4]
0.1 | 98 | Ac-LEGREKVRAK(Ac)I[Aib][Aib]EGK([TTDS-TTDS-TTDS-γGlu-γGlu-γGlu-γGlu-Stearoyl])STWS[Aib]RKK(Ac)-NH2 [peptide of SEQ ID NO: 51]
0.14 | 90 | Ac-LEGREKVRAK(Ac)I[Aib][Aib]EGK([TTDS-TTDS-γGlu-γGlu-γGlu-Stearoyl])STFS[αMeK]RAK(Ac)-NH2 [peptide of SEQ ID NO: 34]
0.15 | 91 | Ac-LEGREKVRA[Cit]I[Aib][Aib]EGK([TTDS-TTDS-TTDS-γGlu-γGlu-γGlu-Stearoyl])STFS[αMeK]RAK(Ac)-NH2 [peptide of SEQ ID NO: 56]
1.5 | 84 | Ac-LEGREKVRAK(Ac)I[Aib][Aib]EGK([AEEA-AEEA-AEEA-AEEA-γGlu-γGlu-γGlu-Palmitoyl])STWS[αMeK]RAK(Ac)-NH2 (SMILES CCCCCCCCCCCCCCCC(=O)N[C@@H](CCC(=O)N[C@@H](CCC(=O)N[C@@H](CCC(=O)NCCOCCOCC(=O)NCCOCCOCC(=O)NCCOCCOCC(=O)NCCOCCOCC(=O)NCCCC[C@H](NC(=O)CNC(=O)[C@H](CCC(=O)O)NC(=O)C(C)(C)NC(=O)C(C)(C)NC(=O)[C@@H](NC(=O)[C@H](CCCCNC(C)=O)NC(=O)[C@H](C)NC(=O)[C@H](CCCNC(=N)N)NC(=O)[C@@H](NC(=O)[C@H](CCCCN)NC(=O)[C@H](CCC(=O)O)NC(=O)[C@H](CCCNC(=N)N)NC(=O)CNC(=O)[C@H](CCC(=O)O)NC(=O)[C@H](CC(C)C)NC(C)=O)C(C)C)[C@@H](C)CC)C(=O)N[C@@H](CO)C(=O)N[C@H](C(=O)N[C@@H](Cc1c[nH]c2ccccc12)C(=O)N[C@@H](CO)C(=O)N[C@@](C)(CCCCN)C(=O)N[C@@H](CCCNC(=N)N)C(=O)N[C@@H](C)C(=O)N[C@@H](CCCCNC(C)=O)C(N)=O)[C@@H](C)O)C(=O)O)C(=O)O)C(=O)O) [peptide of SEQ ID NO: 42]
0.45 | 96 | Ac-LEGREKVRAK(Ac)I[Aib][Aib]EGK([AEEA-AEEA-AEEA-AEEA-AEEA-γGlu-γGlu-γGlu-Palmitoyl])STFS[αMeK]RAK(Ac)-NH2 (SMILES CCCCCCCCCCCCCCCC(=O)N[C@@H](CCC(=O)N[C@@H](CCC(=O)N[C@@H](CCC(=O)NCCOCCOCC(=O)NCCOCCOCC(=O)NCCOCCOCC(=O)NCCOCCOCC(=O)NCCOCCOCC(=O)NCCCC[C@H](NC(=O)CNC(=O)[C@H](CCC(=O)O)NC(=O)C(C)(C)NC(=O)C(C)(C)NC(=O)[C@@H](NC(=O)[C@H](CCCCNC(C)=O)NC(=O)[C@H](C)NC(=O)[C@H](CCCNC(=N)N)NC(=O)[C@@H](NC(=O)[C@H](CCCCN)NC(=O)[C@H](CCC(=O)O)NC(=O)[C@H](CCCNC(=N)N)NC(=O)CNC(=O)[C@H](CCC(=O)O)NC(=O)[C@H](CC(C)C)NC(C)=O)C(C)C)[C@@H](C)CC)C(=O)N[C@@H](CO)C(=O)N[C@H](C(=O)N[C@@H](Cc1ccccc1)C(=O)N[C@@H](CO)C(=O)N[C@@](C)(CCCCN)C(=O)N[C@@H](CCCNC(=N)N)C(=O)N[C@@H](C)C(=O)N[C@@H](CCCCNC(C)=O)C(N)=O)[C@@H](C)O)C(=O)O)C(=O)O)C(=O)O) [peptide of SEQ ID NO: 45]
0.19 | 97 | Ac-LEGREKVRAK(Ac)I[Aib][Aib]EGK([TTDS-TTDS-TTDS-γGlu-γGlu-γGlu-Palmitoyl])STFS[αMeK]RAK-NH2 [peptide of SEQ ID NO: 49]
0.45 | 96 | Ac-LEGREKVRAQI[Aib][Aib]EGK([TTDS-TTDS-TTDS-γGlu-γGlu-γGlu-Palmitoyl])STFS[αMeK]RAK(Ac)-NH2 [peptide of SEQ ID NO: 48]
0.64 | 95 | Ac-LEGREKVRAKI[Aib][Aib]EGK([TTDS-TTDS-TTDS-γGlu-γGlu-γGlu-Palmitoyl])STFS[αMeK]RAK(Ac)-NH2 [peptide of SEQ ID NO: 47]
0.44 | 98 | Ac-LEGREKVRAK(Ac)I[Aib][Aib]EGK([TTDS-TTDS-TTDS-γGlu-γGlu-γGlu-Palmitoyl])STWS[hLys]RAK(Ac)-NH2 [peptide of SEQ ID NO: 57]

Continued, binder first:

Binder | EC50 (nM), OVCAR 5 cells (cAMP) [nM] | EMax, OVCAR 5 cells (cAMP) [%]
Ac-LEGRELVRAK(Ac)I[Aib][Aib]EGK([TTDS-TTDS-TTDS-γGlu-γGlu-γGlu-Palmitoyl])STWS[Aib]RRK(Ac)-NH2 [peptide of SEQ ID NO: 37] | 5.6 | 98
Ac-LEGRERVRAK(Ac)I[Aib][Aib]EGK([TTDS-TTDS-TTDS-γGlu-γGlu-γGlu-Palmitoyl])STWS[Aib]RRK(Ac)-NH2 [peptide of SEQ ID NO: 55] | 0.18 | 
Ac-LEGREKVRAK(Ac)I[Aib][Aib]EGK([TTDS-TTDS-γGlu-γGlu-γGlu-γGlu-Stearoyl])STWS[Aib]RKK(Ac)-NH2 [peptide of SEQ ID NO: 54] | 0.16 | 96
Ac-LEGREKVRAK(Ac)I[Aib][Aib]EGK([TTDS-TTDS-TTDS-γGlu-γGlu-γGlu-Palmitoyl])STW[Dser]KRAK(Ac)-NH2 [peptide of SEQ ID NO: 44] | 2.2 | 97
Ac-LEGREFVRAK(Ac)I[Aib][Aib]EGK([TTDS-TTDS-TTDS-γGlu-γGlu-γGlu-Palmitoyl])STWS[Aib]RRK(Ac)-NH2 [peptide of SEQ ID NO: 39] | 8.7 | 93
Ac-LEGREKVRAK(Ac)I[Aib][Aib]EGK([TTDS-TTDS-TTDS-γGlu-γGlu-γGlu-Palmitoyl])STW[Aib]KRAK(Ac)-NH2 [peptide of SEQ ID NO: 35] | 2.33 | 91
Ac-LEGREKVRAK(Ac)I[Aib][Aib]EGK([TTDS-TTDS-TTDS-γGlu-γGlu-γGlu-Palmitoyl])STFS[Dlys]RAK(Ac)-NH2 [peptide of SEQ ID NO: 36] | 3.6 | 93
